Data as given in the domain aggregation screens of Martell et al. (2025).

Test: soluble fraction after stress (log2 fold change); higher = more stays soluble; pooled small domains, quantitative proteomics
Conditions: stress: 50 degC
Outline: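 Pooled custom libraries of small protein domains were measured in a high-throughput format, with quantitative proteomics as the read-out. Each library was stressed at 50°C. Aggregation propensity is given as the base-two logarithm of the fold change in how much of each protein stays soluble after the stress. Higher values mean a larger share of the protein remains in solution.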

HMEDKPITKEQKQAMFALLREHFSGDEGNAVYTAVLEREGLAPGDKIMSSVYDRLIDGINEAIRQKLEAGA
soluble fraction (log2): 0.00629

HMTFSDKIRELRKQKGVSQAVVAEYLGITKQAYSLYETGKREPDFDSLLKLAEYFGTDTDSLLY
soluble fraction (log2): -0.309

HMIKEGDLVFIWNPKKGDSFLIKVQPGQSQGTHFGQIKHSEIMEHNYGEGIRTPKGQVYYLLRPTLGEFTR
soluble fraction (log2): -1.14

HMAKNIEVPNLVGSTISVARNDLKQLGLHVIVRDSVWSEDKKIDTILEQFPEPGKKLKPEGVVQVVVSI
soluble fraction (log2): -0.408

HMGPESKLTDAIKDYIYALYENLKGKSKFRNTIIEEVKKLYGVDISRESIRRVVNQKTDAETTENDDDEKA
soluble fraction (log2): ≥ 0.62

HMDGLIRLNKLLATLGVESRRHAEEMIIAGRITVDGVTATEKGQKVRRGAVIKVDGVEVGPPP
soluble fraction (log2): -0.121

HMIDDNTIIQIGDSYSKSIRLLGEPIELKNRSLNQKSYFMAVYDFKGRRYRLFFENDVLFDILRD
soluble fraction (log2): -1.86

HMSADEVSQQLTSEQTKSKSYQALLQAYAAYQQKSFDDAALELQNVQQDVLSDSQKTIYNTISQAVNS
soluble fraction (log2): 0.185

HMGVITVRPPIVVRDFAIALNLKPFQVIGNLMELNKVVSVSSVIEEADARKVAERHGYTLEIRH
soluble fraction (log2): -0.516

HMILVLKPGAPEDLKNELIHDIEKMGLRVHVSVGEGTTIIGLIGDTSKISKYTFSSYEIVSNVLRVT
soluble fraction (log2): -0.0106

HMAIDWVQIKAEYISGTMSASKLAEKHGVSVYAIRKRSGKERWQELRRQNQSETANKIAEKI
soluble fraction (log2): -1.6

HMDPSKMKIDELEIATRTATALADGGIKSVAGLIRKSASALKELDGVGDKAIAEITEALEKLGLELKG
soluble fraction (log2): 0.0501

HMEALTPREREVLTLMGQGRSNAEIATLLSIAPRTAKVHVQNILSKLGATNRTEAVSLAVRQGLIS
soluble fraction (log2): 0.301

HMGPAYEKIVANGQTFYRYNVKKGEGLMAVSRTFNVSVNDILKYNPSAASGLKDGQELLIPVIDDA
soluble fraction (log2): 0.164

HMPQTNIYPNPAFDKLFVSNLENETNFKIMDLFGRTIINSKTKGEISISELKSGIYIIEINNFRQKFVK
soluble fraction (log2): -0.839

HMQGAARGMLFAQAQRWMTKFRIDPQQADRITQAALDPAQTDAILREVRRGYGPSAERALRGIIRRARRA
soluble fraction (log2): -0.968

HMTPKVTVPDVTGQTFSSAKQILESLGFTVKQQGSTDETDQVIDQNPTSGEADKGATITLTTKSS
soluble fraction (log2): 0.297

HMSDLQTGDINQDGTVDEKDLSLLHSYNLELIKTISNAADLNEDGVINGLDEAYLKRLFLQNSDP
soluble fraction (log2): -0.0614

HMDLTPEEQMDLYRLLDSLPTEERTYLILHYFEERSFPEMAEILSMPEAKLKSRFYRILHRLRAHL
soluble fraction (log2): -2.56

HMNLDMVINKIGIVTEDIKQDKIGEVKVLGKRWSAYSNTELKKDEKVKILSIDGVKLKVEKI
soluble fraction (log2): 0.191

HMSRVTVDVNPDVLQWAIDKKGKGDIKNKFPKIDEWLNGISKPTIHQLENFAKYVSVPFGYLLLSKPPVE
soluble fraction (log2): 0.276

HMNSSTVDLAKEFLIDLLSSVEKMPASEVQEEAKNAGYSVASIRRAKDNLNIKPFKDGSAWYWKLPSIFK
soluble fraction (log2): -0.114

HMQESTPGEGYKWREDVLLRVMSQNGIDESLRDEFVRHAVNYDIDDNMYLKKAEIESAAEAWVLENS
soluble fraction (log2): -0.0581

HMSVTSIEGRVVYDENANKIGIAKQVGIDSTQSMVLVLTKNDGTEGSISWNNIKKIGEIILLGN
soluble fraction (log2): -0.369

HMRPLTPLEKLTPDADGKYYHIVQSGETLSWIAKLYETTAEKLQAWNNLFSSDIFPNQKLLLQVTPP
soluble fraction (log2): 0.0722

HMKDITMPNVYGLTLEMAEQTLKQSELSIFKAMKINSDTVEEGKVIYTDPKANSIVSGDQEITIYVSDGP
soluble fraction (log2): 0.0645

HMNIVKGDTTANVRVVQQRLYNLGYYTYKVDGIWGTRTKTAVKKFQKDKGLVADGIVGAKTEKALGITLT
soluble fraction (log2): -1.29

HMLLTLPEDIITMVRQGTLSAGHARVLAGLESDEMKMTLARQTITNEWSVRQLENAVALMRKS
soluble fraction (log2): -0.0766

HMVSAEQNTLEFIKENVKEDVIEDDIEFYKSLLEDWSVEVDNSSKLLDPGNNNSLLAVIAYSIENEL
soluble fraction (log2): -0.0399

HMVYLPGEEIPLKIIQEGKESGQGVGYLEDGTMVVVENGRRYLNQEVLVQVTKILQTNAGRLIFAVP
soluble fraction (log2): -0.346

HMQHQSGLKSGEFEAISQQLQALLKENPLSLQEIKDKMQVTENHLIKVVSYLVSEEIIRQENGYLK
soluble fraction (log2): -0.729

HMDEVPMPPEYQYLRVGSRVHHATFGWGKVTRLSQPWPQTRAEVFFENIGPKKLVLAHAHLTMD
soluble fraction (log2): -0.727

HMSLPTSDWKRALSLFDEALSLPPDARDAWLAHTIAREPAVSPLLQKLLGAHRRVETNDILATLPR
soluble fraction (log2): -0.286

HMQLDLSDPSKNKLDSIVSLPIKSLKAVEANGEILFMSENGRFVLRGQLYDIWYKDTLDTSAQIQDAATRI
soluble fraction (log2): 0.109

HMQLLDIGSAVRIIREPYFGRLGTVVELPPELMEIESGTHARVLKAKLDDGTVAVVPRANVEIIVE
soluble fraction (log2): -0.171

HMGSNLSFDLSQIIASRYQEKAAELGLTAPSLARTDLSPQEQATAEVVARAIIADYYDQRVAPFNDLIPQ
soluble fraction (log2): -0.394

HMTFPIDINRADTEQLTALPGIGEVLAKRIIAYREENGSFLSTDELKNVEGIGEKRLEAIVDLITIG
soluble fraction (log2): 0.113

HMKTLLSMNIKNLRKKKNMTLEELAEKVGTSKQTIQRYESGKISNIPSDKIELLAKYLDTTPAKLMGW
soluble fraction (log2): 0.441

HMPNIHVVFAEEWTDRRLDKVLSEYFDGYSRSFIKKLFDDGLILVNSKAVKPSYKVRAGDMIDISVPDPV
soluble fraction (log2): -0.646

HMKQDYYSILGVMRDASQEEIKRAYLDAAQRLHPDRNTSAGDTEMFLDVQQAYEVLSNPKRRAQYDATLP
soluble fraction (log2): 0.148

HMSSYTQEDVRSGILYMAQLKPRNIEEFVSTLAFSKDDIMDNLSFLVDEGFLKFDADTDTYFNPVPL
soluble fraction (log2): -0.214

HMTKLPLLVELSRIIPTDTWVKKIKFSLGSVEFVGISKSASRLLPIVENSSYFHDTKFIGTIVT
soluble fraction (log2): -0.486

HMNTVAGAISDLSFKVRGSEDIEKLNRLKALSIQAKLDVQGQEEAERLISELEAKYGSLGMTVDKVSGKIA
soluble fraction (log2): 0.158

HMGAATQADIARVQELLNRLGYDAGSPDGLMGPRTRDAILEYQLTEGLETTGTVTRETLASLEARL
soluble fraction (log2): 0.0823

HMSTPVPIEGQPTENLNLRDQPSTSGKILTTIPKGKTVTILSEKNANGWYKVSYNGKTGYVSGSYFKVTK
soluble fraction (log2): 0.317

HMKQTFGAMLAALRKEKGMTQLELAEQMGVTDKAVSKWERDLSFPDVTSLPRLAEILEVSVDELMQ
soluble fraction (log2): -0.0444

HMTFGEMLQYTNRLKEILESNAPQSIKDRRLANLMTDLEQAYGIPILRDQEFEKENPFLMQLYRTIS
soluble fraction (log2): -2.06

HMGAARRFEMSEGGSQKFWEVAVEGPALTVRFGKLGTAGTTQTKTLASAEAAAKEADKLVREKTKKGYAP
soluble fraction (log2): 0.222

HMEEFIEHTVEKGEFLSAIIVAYNQHLKSKGFKSITTRDILNANPKLKPELIQVGQKIKIPRRKK
soluble fraction (log2): 0.29

HMEISTEVPLRGGTISEEALEALNRLPGVTASNIDGKSISVDVADNAELRVSDINQVLAVHSPDTRV
soluble fraction (log2): 0.209

HMDVSPVRLIREARGLSQVEVAKAAGLSRAAYQNIEVGKTVPRASTMVNIARALGVSMDDLLAPV
soluble fraction (log2): -0.251

HMPGEATVPSVIGMTKAEAKAKLQASGFELGYSEFVASDKPKGEIVEQDPGAGETAKGGTEVNVKISDGS
soluble fraction (log2): -0.0145

HMPDAGQRRYLELVTALAGARSLTIDDLERRAIRFAEWGNGYSGRTARQFIDTLLQDRGVAEEL
soluble fraction (log2): -0.405

HMVKVEVKPNVLQWVIKRMDNFDRLKDQFPNIDKWINQESQPTLKQLEKLAKMTAVPLGYFFLPNPPEEK
soluble fraction (log2): -0.183

HMTRQNTAVQQSDMAHHKASELTEGMSIVHSHFGRGTIISIETADDPRVTVDFSSEGRKTMLLRFAKFAIE
soluble fraction (log2): -0.118

HMYMWQVEDLLRANELDIENIKKTIIDHYQLDDAQKSELTRWYEDLINMMRLEGVTKEGHLQINK
soluble fraction (log2): -1.41

HMDIEVEVPNLVGMSLDEAKSIIQSMGLVVGLTIEDPSAKVSDNSVTKQKPTYQTGVKLRSGDMIDIWYAG
soluble fraction (log2): -0.102

HMGEVYPSDIVEKMKQANLHILEGTLYPLLTRLKNAGLLNYRWVESVTGPPRKYFVMTEEGKAAF
soluble fraction (log2): 0.0419

HMPVVKIPFILTEGPSSITKVIEIDADEILELKDVFQEDDKLWSINQIEMNDGRYVKHSDASLIVRASALR
soluble fraction (log2): 0.066

HMNKMIDAPDLTGLSLEDAKLVLEANKLQLGTVSHEPSDKPEDVVISQDPMEGQEIQQGGKVNLVVSYGD
soluble fraction (log2): -0.0696

HMSLTEEQVDSGLKEIRLALLEADVALPVVKNFITNIKPKAIGQEIIRSTSPGQMIVKIVYDELVSIL
soluble fraction (log2): -0.0891

HMNTDVEKQKVFTALFDDYFRRNSMTSLEKQLFLTALKTNFQNAQKTVAKDHPYYATYSLIISAIENYR
soluble fraction (log2): 0.145

HMQADTATITGNGVNMRSGPGTNYQIIDTIPKGTVAEVLSQQDGWVKIYSARISGWVSASYVEIKQT
soluble fraction (log2): -0.356

HMHHSGLRQSQFDEISRQIRSLLEMESLSLQELKTRMEDVPEEQLTKVVSYLLSEEIIRQENGRLQ
soluble fraction (log2): -0.0768

HMQITAPVQKIDGVEYYMHKVEQGQTLYSISKLYNVGVKEIQKANQLGTEGIQLGQVLKVRKGG
soluble fraction (log2): -0.0136

HMQGQVLQETARKARSQLDSEIPGFNDALYQNLIKSSENYGYKAEEVAQWVDPRAIKVLNDAYQFQQLKAG
soluble fraction (log2): -0.0765

HMAFAQMAQEAAKGKDDFNDLRQEMEAVIKEQPHILLMAQFGQNPYEIAYQEAKRRKAQDQQQQQ
soluble fraction (log2): 0.288

HMRDIGKNIRYYREKKGYSQEQLAQLLFVTRQTVSNYETSRSRPDVETLVKLAGLLDIDVTDLIYGPR
soluble fraction (log2): -0.651

HMESAVDVFRSILKEKGVTEEEVRQVVAARGKYTLETPIDDYPNEFLYGYVIRYWDQIFDIIQQSREAK
soluble fraction (log2): -0.321

HMKKPKTVLSEEQKEFIINQAQDGVSAYDIARILFPSVNVTNLSKEVIDVAEFIRDTDIKLLADSE
soluble fraction (log2): 0.0694

HMTVGENTYELIKKDIIFGVLPPLKKLKLQELKKIYNASVSTLREILSRLTGDGFVFSEEQKGFYVSPV
soluble fraction (log2): 0.00444

HMTYADTRDLLIRRGMELLTEQGIAATSIERVLQSTGIPKGSFYHYFATKHDFTLAVMDAYHHY
soluble fraction (log2): -0.0315

HMKMTIEDLITQAKESNAAENYYEAFQLYSKAIDVLPNDPDLYSARGVVLFHLDRKEDSLIDMNKSVD
soluble fraction (log2): -0.2

HMLTTMSSQWKPSLDAIEILEKSGIAYSFIEDAIPEFVLYWRERGISHGAWNTKFVEHIRKQWAKFEAS
soluble fraction (log2): -1.35

HMIELDRTNLLGVFGPKSRPYALLMLSNGEMIKISIGDQFFGWRVYGIDEKSIQVQNGTKQEILRIP
soluble fraction (log2): -2.12
